Measured values taken from patent publication CN114478789A (ANHUI ANKE BIOLOGICAL ENG GROUP CO LTD, dated 2022).

B1: L52-2D7H232 (bispecific antibody, human IgG1, kappa)
light: DIQMTQSPSTLSASVGDRVTITCQSSQNVYSNNRLSWYQQKPGKAPKLLIYWTSFLASGVPSRFSGSGSGTEFTLTISSLQPDDFATYYCAGGYSGNLYTFGQGTKLEIKRTVAAPSVFIFPPSDEQLKSGTASVVCLLNNFYPREAKVQWKVDNALQSGNSQESVTEQDSKDSTYSLSSTLTLSKADYEKHKVYACEVTHQGLSSPVTKSFNRGEC
heavy: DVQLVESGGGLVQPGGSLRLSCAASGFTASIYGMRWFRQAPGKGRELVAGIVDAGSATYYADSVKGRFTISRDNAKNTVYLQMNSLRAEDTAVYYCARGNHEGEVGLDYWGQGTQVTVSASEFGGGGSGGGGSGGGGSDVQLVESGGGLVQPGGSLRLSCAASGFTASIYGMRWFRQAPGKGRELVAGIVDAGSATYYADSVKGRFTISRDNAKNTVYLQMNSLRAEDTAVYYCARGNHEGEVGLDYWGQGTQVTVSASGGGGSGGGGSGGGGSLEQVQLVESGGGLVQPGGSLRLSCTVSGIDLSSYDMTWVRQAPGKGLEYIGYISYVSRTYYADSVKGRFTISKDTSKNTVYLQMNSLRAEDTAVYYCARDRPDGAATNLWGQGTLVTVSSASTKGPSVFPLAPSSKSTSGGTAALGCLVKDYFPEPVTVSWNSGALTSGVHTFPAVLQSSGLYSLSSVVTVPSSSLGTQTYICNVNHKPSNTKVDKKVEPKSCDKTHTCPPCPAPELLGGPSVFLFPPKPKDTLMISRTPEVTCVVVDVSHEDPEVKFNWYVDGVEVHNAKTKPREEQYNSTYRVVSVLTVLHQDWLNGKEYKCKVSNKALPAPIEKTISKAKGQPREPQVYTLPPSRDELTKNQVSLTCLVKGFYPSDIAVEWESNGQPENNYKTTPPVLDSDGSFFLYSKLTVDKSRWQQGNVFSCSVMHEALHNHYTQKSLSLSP
notes: Symmetric bispecific: two tandem anti-OX40 nanobodies D7 joined to the heavy chain of the anti-PD-L1 IgG1 L52H232; also called 抗PD-L1与OX40双特异性抗体; 优选抗体L52-2D7H232
B2: L52H232-2D7 (bispecific antibody, human IgG1, kappa, N297A)
light: B1 light
heavy: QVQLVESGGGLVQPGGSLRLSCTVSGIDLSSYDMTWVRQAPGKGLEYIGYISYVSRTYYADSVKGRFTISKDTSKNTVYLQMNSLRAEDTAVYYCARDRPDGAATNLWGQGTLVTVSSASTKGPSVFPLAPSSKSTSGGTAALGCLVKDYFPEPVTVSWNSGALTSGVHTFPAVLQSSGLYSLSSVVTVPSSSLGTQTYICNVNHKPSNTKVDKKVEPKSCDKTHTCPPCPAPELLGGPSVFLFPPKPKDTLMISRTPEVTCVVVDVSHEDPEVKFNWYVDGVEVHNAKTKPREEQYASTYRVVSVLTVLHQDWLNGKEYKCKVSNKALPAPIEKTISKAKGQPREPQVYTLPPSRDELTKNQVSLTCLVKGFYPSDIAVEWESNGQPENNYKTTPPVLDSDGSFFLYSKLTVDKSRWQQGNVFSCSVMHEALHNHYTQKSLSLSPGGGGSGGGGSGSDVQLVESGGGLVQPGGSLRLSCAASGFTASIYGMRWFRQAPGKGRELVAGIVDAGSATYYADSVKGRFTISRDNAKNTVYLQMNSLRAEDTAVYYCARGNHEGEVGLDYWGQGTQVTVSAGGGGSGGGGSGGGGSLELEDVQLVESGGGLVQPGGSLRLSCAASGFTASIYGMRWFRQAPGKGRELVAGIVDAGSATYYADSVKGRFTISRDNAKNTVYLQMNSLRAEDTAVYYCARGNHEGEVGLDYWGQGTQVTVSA
notes: to be rechecked; also called 抗PD-L1与OX40双特异性抗体
B3: L52H232-D7 (bispecific antibody, human IgG1, kappa, N297A)
light: B1 light
heavy: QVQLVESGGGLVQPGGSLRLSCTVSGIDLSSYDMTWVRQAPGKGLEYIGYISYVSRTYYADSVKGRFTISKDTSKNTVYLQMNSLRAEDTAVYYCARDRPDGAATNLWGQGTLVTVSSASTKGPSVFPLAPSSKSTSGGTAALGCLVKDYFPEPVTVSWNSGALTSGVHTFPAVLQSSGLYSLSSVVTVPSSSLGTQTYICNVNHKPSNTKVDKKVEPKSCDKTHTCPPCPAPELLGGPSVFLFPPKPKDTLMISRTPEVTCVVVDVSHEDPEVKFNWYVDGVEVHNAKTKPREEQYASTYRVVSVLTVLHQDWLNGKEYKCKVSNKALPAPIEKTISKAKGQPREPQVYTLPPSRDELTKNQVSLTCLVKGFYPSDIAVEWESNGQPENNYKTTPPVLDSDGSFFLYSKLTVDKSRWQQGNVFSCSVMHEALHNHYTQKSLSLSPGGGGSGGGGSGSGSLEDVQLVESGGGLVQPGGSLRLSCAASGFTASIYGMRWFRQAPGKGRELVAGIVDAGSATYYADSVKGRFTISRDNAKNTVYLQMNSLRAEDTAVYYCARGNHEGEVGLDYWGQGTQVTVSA
notes: Symmetric bispecific: anti-OX40 nanobody D7 joined to the heavy chain of the anti-PD-L1 IgG1 L52H232; also called 抗PD-L1与OX40双特异性抗体
B4: L52-D7H232 (bispecific antibody, human IgG1, kappa, N297A)
light: B1 light
heavy: DVQLVESGGGLVQPGGSLRLSCAASGFTASIYGMRWFRQAPGKGRELVAGIVDAGSATYYADSVKGRFTISRDNAKNTVYLQMNSLRAEDTAVYYCARGNHEGEVGLDYWGQGTQVTVSASEFGGGGSGGGGSGGGGSLEQVQLVESGGGLVQPGGSLRLSCTVSGIDLSSYDMTWVRQAPGKGLEYIGYISYVSRTYYADSVKGRFTISKDTSKNTVYLQMNSLRAEDTAVYYCARDRPDGAATNLWGQGTLVTVSSASTKGPSVFPLAPSSKSTSGGTAALGCLVKDYFPEPVTVSWNSGALTSGVHTFPAVLQSSGLYSLSSVVTVPSSSLGTQTYICNVNHKPSNTKVDKKVEPKSCDKTHTCPPCPAPEDEGGPSVFLFPPKPKDTLMISRTPEVTCVVVDVSHEDPEVKFNWYVDGVEVHNAKTKPREEQYASTYRVVSVLTVLHQDWLNGKEYKCKVSNKALPAPIEKTISKAKGQPREPQVYTLPPCRDELTKNQVSLWCLVKGFYPSDIAVEWESNGQPENNYKTTPPVLDSDGSFFLYSKLTVDKSRWQQGNVFSCSVMHEALHNHYTQKSLSLSP
notes: Symmetric bispecific: anti-OX40 nanobody D7 joined to the heavy chain of the anti-PD-L1 IgG1 L52H232; also called 抗PD-L1与OX40双特异性抗体; 优选抗体L52-D7H232

These binders were tested against T1, rhOX40-Avi-His (human, UniProt P43489 29-214, limits assumed) (assay: ELISA, human OX40 coated).
T1 construct: also called OX40抗原; 人源OX40
T1 sequence (looked up): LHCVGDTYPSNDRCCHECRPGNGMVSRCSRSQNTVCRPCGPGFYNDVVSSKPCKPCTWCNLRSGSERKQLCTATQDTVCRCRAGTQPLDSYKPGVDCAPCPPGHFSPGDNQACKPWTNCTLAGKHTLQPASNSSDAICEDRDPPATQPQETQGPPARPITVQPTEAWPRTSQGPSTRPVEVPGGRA

| Binder | binding result |
| --- | --- |
| B1 | binds |
| B2 | binds |
| B3 | binds |

The binders below were run against T2, 鼠源OX40 (mouse, UniProt P47741 20-211, limits assumed) (assay: ELISA, mouse OX40 coated).
T2 construct: also called 鼠源OX40抗原
T2 sequence (looked up): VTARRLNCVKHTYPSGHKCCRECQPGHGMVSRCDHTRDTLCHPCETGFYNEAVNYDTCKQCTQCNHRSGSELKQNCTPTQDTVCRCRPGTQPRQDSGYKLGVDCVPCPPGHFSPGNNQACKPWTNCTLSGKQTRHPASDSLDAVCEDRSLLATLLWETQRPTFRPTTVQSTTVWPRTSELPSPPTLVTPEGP

| Binder | binding result |
| --- | --- |
| B1 | no binding |
| B4 | no binding |
| B2 | no binding |
| B3 | no binding |
